Measured values reported in patent publication US20110053865A1 (published 2011).
Where two headings read alike, the source gives them in different places.

What was measured:
[1] = target: T1, recombinant human IL-23 (p19/p40) (human, UniProt Q9NPF7 20-189; P29460 23-328); test: alpha-screen hIL-23/hIL-23R; Fig 6
T1 chain 1: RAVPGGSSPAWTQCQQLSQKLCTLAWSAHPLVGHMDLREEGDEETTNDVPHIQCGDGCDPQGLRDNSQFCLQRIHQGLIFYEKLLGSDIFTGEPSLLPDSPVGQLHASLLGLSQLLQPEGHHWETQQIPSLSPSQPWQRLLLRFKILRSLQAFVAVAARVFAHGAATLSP
T1 chain 2: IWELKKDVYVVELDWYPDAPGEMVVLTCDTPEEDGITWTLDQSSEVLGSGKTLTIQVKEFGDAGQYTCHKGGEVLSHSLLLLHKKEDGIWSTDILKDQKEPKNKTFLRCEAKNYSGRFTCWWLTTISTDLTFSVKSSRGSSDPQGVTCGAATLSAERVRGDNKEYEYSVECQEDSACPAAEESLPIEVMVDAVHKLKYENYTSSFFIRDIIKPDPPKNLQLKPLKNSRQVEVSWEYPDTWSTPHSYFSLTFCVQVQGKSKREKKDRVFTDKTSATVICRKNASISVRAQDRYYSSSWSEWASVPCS

[2] = target: T1, recombinant human IL-23 (p19/p40); test: alpha-screen hIL-23/hIL-23R; Fig 7
[3] = target: T1, recombinant human IL-23 (p19/p40); test: Biacore; eBiosc hIL23
[4] = target: T2, recombinant human IL-12 (human, UniProt P29459 23-219; P29460 23-328); test: Biacore
T2 chain 1: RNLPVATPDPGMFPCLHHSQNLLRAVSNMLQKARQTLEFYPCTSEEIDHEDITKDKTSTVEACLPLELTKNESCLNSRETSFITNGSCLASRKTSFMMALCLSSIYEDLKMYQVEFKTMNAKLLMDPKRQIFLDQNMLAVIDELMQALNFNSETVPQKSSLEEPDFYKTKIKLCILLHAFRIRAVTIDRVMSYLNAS
T2 chain 2: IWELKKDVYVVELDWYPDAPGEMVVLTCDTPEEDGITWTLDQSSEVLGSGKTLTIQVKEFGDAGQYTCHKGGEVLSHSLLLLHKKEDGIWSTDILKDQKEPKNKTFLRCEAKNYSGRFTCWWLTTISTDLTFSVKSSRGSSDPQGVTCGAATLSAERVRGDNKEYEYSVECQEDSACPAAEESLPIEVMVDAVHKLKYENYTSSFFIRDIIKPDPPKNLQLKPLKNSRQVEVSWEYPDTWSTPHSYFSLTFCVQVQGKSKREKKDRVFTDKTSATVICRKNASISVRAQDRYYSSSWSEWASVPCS

[5] = target: T2, recombinant human IL-12; test: Biacore

B1: P23IL-121A2 (VHH)
VHH: EVQLVESGGGLVQAGGSLRLSCAASGSIFNFNYMGWFRQAPGKEREFVAAIRWSGSSTYYADSVKGRFTISRDDAKNTVALQMNSLKPEDTAIYYCALRKGIPYSTSDRVIKGVNDYDYWGQGTQVTVSS
Work on B1 yielded an IC50 [1] of 299 pM and an IC50 [2] of 270 pM.

B2: P23IL119A3 (VHH)
VHH: EVQLVESGGGLVQAGGSLRLSCAASGRIFSLPASGNIFNLLTIAWHRQAPGMQRELVATINSGSRTNYADSVKGRFTISRDNAQKTVYLQMNNLKPEDTAVYYCQTSGSGSPNFWGQGTQVTVSS
B2 showed an IC50 [2] of 670 pM.

B3: P23IL81A12 (VHH)
VHH: EVQLVESGGGLVQAGGSLRLSCAASGRTLSSYAMGWFRQAPGKEREFVARISQGGTAIYYADSVKGRFTISRDNAKNTVYLQMNSLKPEDTAVYYCAKDPSPYYRGSAYLLSGSYDSWGQGTQVTVSS
With B3 the koff [3] was 0.000113 s⁻¹.

B4: P23IL3B8 (VHH)
VHH: EVQLVESGGGLVQPGGSLRLSCAASGFTFSSSVMFWLRQAPGKGLEWLSTIKPTGSTIYPGSGKGRFTISRDNAKNTLYLQINNLKPEDTALYYCARDIGGTVRGQGTQVTVSS
For B4, the koff [4] was 0.00243 s⁻¹.

B5: P23IL81G2 (VHH)
VHH: EVQLVESGGGLVQPGGSLRLSCIASGLPFSTKSMGWFRQAPGKEREFVARISPGGTSRYYGDFVKGRFAISRDNAKNTTWLQMNSLKAEDTAVYYCASGERSTYIGSNYYRTNEYDYWGTGTQVTVSS
B5 showed a koff [3] of 0.000257 s⁻¹.

B6: P23IL3C1 (VHH)
VHH: EVQLVESGGGSVQAGGSLRLSCKVSGIMFSDKGMGWFRQAPGKERETVAATNWSGGSTYYADSVKGRFTISRDNYKNTLHLQMASLKPEDTGIYYCAAAGDSWNSRRIEDYDYWGQGTPVTVSS
With B6 the koff [4] was 0.000279 s⁻¹.

B7: 121A2-119G7 (antibody)
chain: EVQLVESGGGLVQAGGSLRLSCAASGSIFNFNYMGWFRQAPGKEREFVAAIRWSGSSTYYADSVKGRFTISRDDAKNTVALQMNSLKPEDTAIYYCALRKGIPYSTSDRVIKGVNDYDYWGQGTQVTVSSGGGGSGGGGSGGGGSGGGGSGGGGSGGGGSGGGGSEVQLVESGGGLVQAGGSLTLSCAVSGLTFNNYAMGWFRQVPGKEREFVAAISRSGLRTFYSDSVKGRFTISRDSAKSTVYVQMNNLKPEDTAVYFCAADRRTYYSEGPSLTDTLRYDYWGQGTQVTVSS
In the case of B7, the IC50 [1] is reported as 131 pM.

B8: P23IL81E10 (VHH)
VHH: EVQLVESGGGLVQAGGSLRLSCVASGRTFNTYGMGWFRQAPGKEREFVAANNWSGGATSYADSVKGRFTISRDNAKNTVFLQMNTLKPEDTAVYYCAAADRGGGWLVVRENDYDYWGQGTQVTVSS
For B8, the koff [4] was 0.00266 s⁻¹ and the koff [5] was 0.00266 s⁻¹.

B9: 119A3-119G7 (antibody)
chain: EVQLVESGGGLVQAGGSLRLSCAASGRIFSLPASGNIFNLLTIAWHRQAPGMQRELVATINSGSRTNYADSVKGRFTISRDNAQKTVYLQMNNLKPEDTAVYYCQTSGSGSPNFWGQGTQVTVSSGGGGSGGGGSGGGGSGGGGSGGGGSGGGGSGGGGSEVQLVESGGGLVQAGGSLTLSCAVSGLTFNNYAMGWFRQVPGKEREFVAAISRSGLRTFYSDSVKGRFTISRDSAKSTVYVQMNNLKPEDTAVYFCAADRRTYYSEGPSLTDTLRYDYWGQGTQVTVSS
In the case of B9, the IC50 [2] is reported as 132 pM.

B10: P23IL 3F11 (VHH)
VHH: EVQLVESGGGLVQAGGSLRLSCAASGSIFSINAMGWFRQAPGKERQFVAAINWSTGSTYYSDSVKGRFTISRDNAKNTVYLQMNSLKPEDTAVYFCASGYLFPSSRGSQYDYWGQGTQVTVSS
Work on B10 yielded a koff [4] of 0.00134 s⁻¹.

B11: P23IL119G7 (VHH)
VHH: EVQLVESGGGLVQAGGSLTLSCAVSGLTFNNYAMGWFRQVPGKEREFVAAISRSGLRTFYSDSVKGRFTISRDSAKSTVYVQMNNLKPEDTAVYFCAADRRTYYSEGPSLTDTLRYDYWGQGTQVTVSS
B11 gave a koff [3] of 0.000479 s⁻¹.

B12: P23IL3G10 (VHH)
VHH: EVQLVESGGGVVQAGESLRLSCAASGYNVKDYEMGWFRQAPGMEREFAAAISWRGSSTYYADSVKGRFTISRDNAKNTVYLQMSSLKPEDTAVYYCAAGRLYPSSRSRDYDYWGQGTQVTVSS
Binder B12 has a koff [4] of 0.00244 s⁻¹.
